The source of these data is paper PMC5753033.

Assay [1] has as its target T1, Mouse profilin 2a, Q9JJV2.
T1 chain: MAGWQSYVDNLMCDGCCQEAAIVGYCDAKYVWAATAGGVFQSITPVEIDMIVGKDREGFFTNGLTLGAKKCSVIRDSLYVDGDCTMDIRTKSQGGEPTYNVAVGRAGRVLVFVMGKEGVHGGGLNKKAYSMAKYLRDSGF
The assay is described as follows: sedimentation equilibrium analytical ultracentrifugation. To be noted: chain shown with the change.

In a further assay the target is Human profilin 1, P07737. Described as above. To be noted: chain shown with the change; modeled as a 1:1 interaction.
[2] abbreviates: two-site, independent binding model with one site fixed to the measured non-specific affinity.

B1: WAVE1 (P): human WAVE1 [277–488], wild-type proline-rich domain, Q92558 P279G; P280S; P281G; P282S; P325G; P326S; P327G; P328S; P369G; P370S; P371G; P372S; … (protein)
chain: MPLVKRNIDPRHLCHTALPRGIKNELECVTNISLANIIRQLSSLSKYAEDIFGELFNEAHSFSFRVNSLQERVDRLSVSVTQLDPKEEELSLQDITMRKAFRSSTIQDQQLFDRKTLPIPLQETYDVCEQPPPLNILTPYRDDGKEGLKFYTNPSYFFDLWKEKMLQDTEDKRKEKRKQKQKNLDRPHEPEKVPRAPHDRRREWQKLAQGPELAEDDANLLHKHIEVANGPASHFETRPQTYVDHMDGSYSLSALPFSQMSELLTRAEERVLVRPHEPGSGSPMHGAGDAKPIPTCISSATGLIENRPQSPATGRTPVFVSPTPGSGSPPLPSALSTSSLRASMTSTPPPPVPPPPPPPATALQAPAVGSGSAPLQIAPGVLHPAGSGIAGSLVQPSPPVARAAPVCETVPVHPLPQGEVQGLPPGSGSPPLGSGGIRPSSPVTVTALAHPPSGLHPTPSTAPGPHVPLMPPSPPSQVIPASEPKRHPSTLPVISDARSVLLEAIRKGIQLRKVEEQREQEAKHERIENDVATILSRRIAVEYSDSEDDSEFDEVDWLE
Usually Kd stands for the concentration at which binding is half-saturated. A low value points to tighter binding. As for B1, the Kd in assay [1] (setting [2]) came to 12 µM.

B2: WAVE1 (P): human WAVE1 [277–488], wild-type proline-rich domain, Q92558 P279G; P280S; P281G; P282S; P348G; P349S; P350G; P351S; P354G; P355S; P356G; P357S; … (protein)
chain: MPLVKRNIDPRHLCHTALPRGIKNELECVTNISLANIIRQLSSLSKYAEDIFGELFNEAHSFSFRVNSLQERVDRLSVSVTQLDPKEEELSLQDITMRKAFRSSTIQDQQLFDRKTLPIPLQETYDVCEQPPPLNILTPYRDDGKEGLKFYTNPSYFFDLWKEKMLQDTEDKRKEKRKQKQKNLDRPHEPEKVPRAPHDRRREWQKLAQGPELAEDDANLLHKHIEVANGPASHFETRPQTYVDHMDGSYSLSALPFSQMSELLTRAEERVLVRPHEPGSGSPMHGAGDAKPIPTCISSATGLIENRPQSPATGRTPVFVSPTPPPPPPPLPSALSTSSLRASMTSTGSGSVPGSGSPPATALQAPAVGSGSAPLQIAPGVLHPAGSGIAGSLVQPSPPVARAAPVCETVPVHPLPQGEVQGLPPGSGSPPLGSGGIRPSSPVTVTALAHPPSGLHPTPSTAPGPHVPLMPPSPPSQVIPASEPKRHPSTLPVISDARSVLLEAIRKGIQLRKVEEQREQEAKHERIENDVATILSRRIAVEYSDSEDDSEFDEVDWLE
With B2, in assay [1] (WAVE1 (PRD [B]) 15.5 µM, Pfn2 91.2, 44.8 and 21.7 µM, 7 K, 10 K, 14 K rpm, 2:1 binding model, Kd1 fit, Kd2 = 138 µM fixed), the Kd is 2.07 µM.

B3: WAVE1 (P): human WAVE1 [277–488], wild-type proline-rich domain, Q92558 P325G; P326S; P327G; P328S; P348G; P349S; P350G; P351S; P354G; P355S; P356G; P357S; … (protein)
chain: MPLVKRNIDPRHLCHTALPRGIKNELECVTNISLANIIRQLSSLSKYAEDIFGELFNEAHSFSFRVNSLQERVDRLSVSVTQLDPKEEELSLQDITMRKAFRSSTIQDQQLFDRKTLPIPLQETYDVCEQPPPLNILTPYRDDGKEGLKFYTNPSYFFDLWKEKMLQDTEDKRKEKRKQKQKNLDRPHEPEKVPRAPHDRRREWQKLAQGPELAEDDANLLHKHIEVANGPASHFETRPQTYVDHMDGSYSLSALPFSQMSELLTRAEERVLVRPHEPPPPPPMHGAGDAKPIPTCISSATGLIENRPQSPATGRTPVFVSPTPGSGSPPLPSALSTSSLRASMTSTGSGSVPGSGSPPATALQAPAVGSGSAPLQIAPGVLHPAGSGIAGSLVQPSPPVARAAPVCETVPVHPLPQGEVQGLPPGSGSPPLGSGGIRPSSPVTVTALAHPPSGLHPTPSTAPGPHVPLMPPSPPSQVIPASEPKRHPSTLPVISDARSVLLEAIRKGIQLRKVEEQREQEAKHERIENDVATILSRRIAVEYSDSEDDSEFDEVDWLE
Regarding B3, the Kd in assay [1] (setting [2]) turned out to be 51 µM.

B4: WAVE1 (P): human WAVE1 [277–488], wild-type proline-rich domain, Q92558 P279G; P280S; P281G; P282S; P325G; P326S; P327G; P328S; P348G; P349S; P350G; P351S; … (protein)
chain: MPLVKRNIDPRHLCHTALPRGIKNELECVTNISLANIIRQLSSLSKYAEDIFGELFNEAHSFSFRVNSLQERVDRLSVSVTQLDPKEEELSLQDITMRKAFRSSTIQDQQLFDRKTLPIPLQETYDVCEQPPPLNILTPYRDDGKEGLKFYTNPSYFFDLWKEKMLQDTEDKRKEKRKQKQKNLDRPHEPEKVPRAPHDRRREWQKLAQGPELAEDDANLLHKHIEVANGPASHFETRPQTYVDHMDGSYSLSALPFSQMSELLTRAEERVLVRPHEPGSGSPMHGAGDAKPIPTCISSATGLIENRPQSPATGRTPVFVSPTPGSGSPPLPSALSTSSLRASMTSTGSGSVPGSGSPPATALQAPAVPPPPAPLQIAPGVLHPAGSGIAGSLVQPSPPVARAAPVCETVPVHPLPQGEVQGLPPGSGSPPLGSGGIRPSSPVTVTALAHPPSGLHPTPSTAPGPHVPLMPPSPPSQVIPASEPKRHPSTLPVISDARSVLLEAIRKGIQLRKVEEQREQEAKHERIENDVATILSRRIAVEYSDSEDDSEFDEVDWLE
Molecule B4 came in with a Kd in assay [1] (setting [2]) of 145 µM.

B5: WAVE1 (P): human WAVE1 [277–488], wild-type proline-rich domain, Q92558 P279G; P280S; P281G; P282S; P325G; P326S; P327G; P328S; P348G; P349S; P350G; P351S; … (protein)
chain: MPLVKRNIDPRHLCHTALPRGIKNELECVTNISLANIIRQLSSLSKYAEDIFGELFNEAHSFSFRVNSLQERVDRLSVSVTQLDPKEEELSLQDITMRKAFRSSTIQDQQLFDRKTLPIPLQETYDVCEQPPPLNILTPYRDDGKEGLKFYTNPSYFFDLWKEKMLQDTEDKRKEKRKQKQKNLDRPHEPEKVPRAPHDRRREWQKLAQGPELAEDDANLLHKHIEVANGPASHFETRPQTYVDHMDGSYSLSALPFSQMSELLTRAEERVLVRPHEPGSGSPMHGAGDAKPIPTCISSATGLIENRPQSPATGRTPVFVSPTPGSGSPPLPSALSTSSLRASMTSTGSGSVPGSGSPPATALQAPAVGSGSAPLQIAPGVLHPAPPPIAPPLVQPSPPVARAAPVCETVPVHPLPQGEVQGLPPGSGSPPLGSGGIRPSSPVTVTALAHPPSGLHPTPSTAPGPHVPLMPPSPPSQVIPASEPKRHPSTLPVISDARSVLLEAIRKGIQLRKVEEQREQEAKHERIENDVATILSRRIAVEYSDSEDDSEFDEVDWLE
For B5, the Kd in assay [1] (setting [2]) came out at 182 µM.

B6: WAVE1 (P): human WAVE1 [277–488], wild-type proline-rich domain, Q92558 P279G; P280S; P281G; P282S; P325G; P326S; P327G; P328S; P348G; P349S; P350G; P351S; … (protein)
chain: MPLVKRNIDPRHLCHTALPRGIKNELECVTNISLANIIRQLSSLSKYAEDIFGELFNEAHSFSFRVNSLQERVDRLSVSVTQLDPKEEELSLQDITMRKAFRSSTIQDQQLFDRKTLPIPLQETYDVCEQPPPLNILTPYRDDGKEGLKFYTNPSYFFDLWKEKMLQDTEDKRKEKRKQKQKNLDRPHEPEKVPRAPHDRRREWQKLAQGPELAEDDANLLHKHIEVANGPASHFETRPQTYVDHMDGSYSLSALPFSQMSELLTRAEERVLVRPHEPGSGSPMHGAGDAKPIPTCISSATGLIENRPQSPATGRTPVFVSPTPGSGSPPLPSALSTSSLRASMTSTGSGSVPGSGSPPATALQAPAVGSGSAPLQIAPGVLHPAGSGIAGSLVQPSPPVARAAPVCETVPVHPLPQGEVQGLPPGSGSPPLGSGGIRPSSPVTVTALAHPPSGLHPTPSTAPGPHVPLMPPSPPSQVIPASEPKRHPSTLPVISDARSVLLEAIRKGIQLRKVEEQREQEAKHERIENDVATILSRRIAVEYSDSEDDSEFDEVDWLE
B6: the Kd turned out to be 138 µM in assay [1] (modeled as a 1:1 interaction) and 813 µM with Human profilin 1, P07737.
